Measurements as given in the Human Domainome abundance scans (Beltran et al. 2025).

B1: RUN and FYVE domain-containing protein 1, residues 639 to 698; numbered along this chain, Q96T51 (parent)
chain: WLKDDEATHCRQCEKEFSISRRKHHCRNCGHIFCNTCSSNELALPSYPKPVRVCDSCHTL

Variants of: B1
Experiment: abundance fitness (aPCA) (normalised: wild type 0, dead -1); higher = more abundant; growth selection in yeast, the domain comes from the species named
Details: Homo sapiens

Abundance fitness, by site and new letter:
S39: N -0.036
C37: A -0.326, T -0.627, G -0.471, I -0.825, P -0.537, S -0.568, F -0.649, R -0.553, L -0.719, N -0.282, Q -0.557, M -0.567, K -0.658, Y -0.615, H -0.325
K49: C -0.133, I -0.32, M -0.298, F -0.342, A -0.327, D -0.001, G -0.057, E -0.083, H -0.11
C29: P -0.835, T -0.818, S -1.01, V -0.904, Y -0.852, W -1.03, N -0.942, Q -1.23
F33: P -0.888, G -0.537, Y 0.005, V 0.076, W -0.455, Q -0.38, D -0.573, C 0.059, I -0.171, M -0.378, E -0.576, S -0.47, N -0.488, R -0.6, H -0.458, K -0.602, T -0.238
S38: T -0.057, D -0.665, Y -0.633, G -0.067, H -0.545, M -0.425, C -0.029, P -0.727, E -0.954, V -0.008, K -0.589, Q -0.432, A 0.124, F -0.594, W -0.282, R -0.122, I -0.38
S46: E 0.402, H -0.004, K 0.181, C -0.133, Y -0.2, V -0.265, F -0.01, Q 0.009, W 0.077, G 0.243, N 0.252, D 0.365, P 0.069, A 0.16, M 0.086, R 0.19, L 0.151
A43: P 0.001, K -0.071, R -0.054, T -0.045, Q -0.008, C -0.128, W -0.405, N 0.034, M 0.021, I 0.019, G -0.124, S -0.188, L 0.058, V 0.008, Y -0.366
P45: L -0.19, D -0.035, H -0.022, A -0.277, V -0.13, Q 0.162, R 0.009, C -0.325, G -0.204, Y -0.425, M -0.073, S 0.027, K 0.091, I -0.162, N 0.017, T 0.047, E -0.081
L42: I 0.214, F 0.034, R 0.227, Q 0.295, A 0.11, Y -0.151, C 0.045, N -0.317, H 0.118, W -0.014, M -0.046, S 0.096, P -0.606, G -0.026, V 0.092, D 0.184, T -0.071
I32: T 0.007, K 0.134, H -0.24, Q 0.045, F 0.042, L -0.056, G 0.195, A -0.1, M 0.161, E 0.074, C -0.105, S 0.013, V 0.04, D -0.079, N -0.05, P 0.109
E41: K -0.038, Q -0.056, T -0.11, M -0.134, A -0.182, I -0.335, V -0.063, S -0.155, H -0.195, D -0.173, W -0.384, Y -0.126, L -0.18, G -0.522, N -0.184, R -0.151, P -0.418, C -0.11
